Data as given in the supplement of paper PMC11875167.

Test: observed amide hydrogen exchange rate constant kobs (stretched exponential fit, FD-normalized) (s^-1); higher = faster H/D exchange (less protection)
Conditions: pH 3 (pH read); temperature: 20 °C; D2O: 88%
Procedure, shortened: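 Uptake curves were fitted to a stretched single exponential with β = 0.8, and kobs, the observed exchange rate constant, is the fitted rate. The data came from Jurkat tryptic peptides (LysC/trypsin, carbamidomethylated cysteines) labeled in 88% D2O at pHread 3, 20 °C, then quenched with 0.23% formic acid at 13 times from 18 to 93,600 s in processing triplicates. MS1 uptake from a Q-Exactive HF, analyzed in HDExaminer with no back-exchange correction, was normalized to full-deuteration controls (24 h, 37 °C).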

| Substance | observed amide hydrogen exchange rate constant kobs |
| --- | --- |
| LLLPWLEAR | 0.00056 |
| LLQDFFNGK | 0.00068 |
| LMDVGLIAIR | 0.000707 |
| LMGLEALK | 0.000548 |
| LMIEMDGTENK | 0.00222 |
| LNEHFLNTTDFLDTIK | 0.00161 |
| LNGTDPEDVIR | 0.00197 |
| LNLVQR | 0.000854 |
| LQAALDDEEAGGRPAMEPGNGSLDLGGDSAGR | 0.00232 |
| LQAVEVVITHLAPGTK | 0.000819 |
| LRQPFFQK | 0.00093 |
| LTDCVVMRDPASK | 0.000824 |
| LTGMAFR | 0.00159 |
| LTLHGLQQYYVK | 0.000933 |
| LVIEEAER | 0.00116 |
| LVIITAGAR | 0.000717 |
| LVILANNCPALR | 0.00112 |
| LVINGNPITIFQERDPSK | 0.000923 |
| LVKQELK | 0.000709 |
| LVLVGDGGTGK | 0.000679 |

| Substance | observed amide hydrogen exchange rate constant kobs |
| --- | --- |
| LVPGGGATEIELAK | 0.00089 |
| LVPVGYGIK | 0.000648 |
| LVQAFQFTDK | 0.00109 |
| LVQDVANNTNEEAGDGTTTATVLAR | 0.00155 |
| LVQGSILK | 0.000721 |
| LWDLTTGTTTR | 0.00172 |
| LYQSAGGMPGGMPGGFPGGGAPPSGGASSGPTIEEVD | 0.00113 |
| MFVGGLSWDTSK | 0.00136 |
| MFVLDEADEMLSR | 0.00164 |
| MGANSLER | 0.00212 |
| MINTDLSR | 0.000886 |
| MLVSGAGDIK | 0.00135 |
| MTDQEAIQDLWQWR | 0.000842 |
| MVLVGDVK | 0.000602 |
| MVNHFIAEFK | 0.00114 |
| MVVESAYEVIK | 0.000759 |
| NDLAVVDVR | 0.000939 |
| NFAFLEFR | 0.00106 |
| NFSDNQLQEGK | 0.00213 |
| NIEDVIAQGIGK | 0.00103 |

| Substance | observed amide hydrogen exchange rate constant kobs |
| --- | --- |
| NIGVDNPAAK | 0.0014 |
| NIIHGSDSVESAEK | 0.00215 |
| NIPGITLLNVSK | 0.000585 |
| NLDIERPTYTNLNR | 0.00136 |
| NLLSVAYK | 0.00119 |
| NLPFDFTWK | 0.00101 |
| NLPLPPPPPPR | 0.00144 |
| NMGGPYGGGNYGPGGSGGSGGYGGR | 0.00223 |
| NNQFQALLQYADPVSAQHAK | 0.000863 |
| NNQITNNQR | 0.00134 |
| NPDDITNEEYGEFYK | 0.00176 |
| NPDDITQEEYGEFYK | 0.00161 |
| NPLPSK | 0.000929 |
| NPPGFAFVEFEDPRDAADAVR | 0.00134 |
| NQGGYGGSSSSSSYGSGR | 0.00275 |
| NQVAMNPTNTVFDAK | 0.000774 |
| NVTLPAVFK | 0.000481 |
| NWMNSLGVNPR | 0.000991 |
| PAAPPAPGPGQLTLR | 0.000936 |
